Measured values taken from IntAct's records for PubMed 9881977.

B1: Early protein (Human adenovirus C serotype 5 (HAdV-5)), P03255-2 (parent)
chain: MRHIICHGGVITEEMAASLLDQLIEEVLADNLPPPSHFEPPTLHELYDLDVTAPEDPNEEAVSQIFPDSVMLAVQEGIDLLTFPPAPGSPEPPHLSRQPEQPEQRALGPVSMPNLVPEVIDLTCHEAGFPPSDDEDEEGPVSEPEPEPEPEPEPARPTRRPKMAPAILRRPTSPVSRECNSSTDSCDSGPSNTPPEIHPVVPLCPIKPVAVRVGGRRQAVECIEDLLNEPGQPLDLSCKRPRP
B2: Early protein (Human adenovirus C serotype 5 (HAdV-5)), P03255-2 (parent)
chain: B1 chain
partner: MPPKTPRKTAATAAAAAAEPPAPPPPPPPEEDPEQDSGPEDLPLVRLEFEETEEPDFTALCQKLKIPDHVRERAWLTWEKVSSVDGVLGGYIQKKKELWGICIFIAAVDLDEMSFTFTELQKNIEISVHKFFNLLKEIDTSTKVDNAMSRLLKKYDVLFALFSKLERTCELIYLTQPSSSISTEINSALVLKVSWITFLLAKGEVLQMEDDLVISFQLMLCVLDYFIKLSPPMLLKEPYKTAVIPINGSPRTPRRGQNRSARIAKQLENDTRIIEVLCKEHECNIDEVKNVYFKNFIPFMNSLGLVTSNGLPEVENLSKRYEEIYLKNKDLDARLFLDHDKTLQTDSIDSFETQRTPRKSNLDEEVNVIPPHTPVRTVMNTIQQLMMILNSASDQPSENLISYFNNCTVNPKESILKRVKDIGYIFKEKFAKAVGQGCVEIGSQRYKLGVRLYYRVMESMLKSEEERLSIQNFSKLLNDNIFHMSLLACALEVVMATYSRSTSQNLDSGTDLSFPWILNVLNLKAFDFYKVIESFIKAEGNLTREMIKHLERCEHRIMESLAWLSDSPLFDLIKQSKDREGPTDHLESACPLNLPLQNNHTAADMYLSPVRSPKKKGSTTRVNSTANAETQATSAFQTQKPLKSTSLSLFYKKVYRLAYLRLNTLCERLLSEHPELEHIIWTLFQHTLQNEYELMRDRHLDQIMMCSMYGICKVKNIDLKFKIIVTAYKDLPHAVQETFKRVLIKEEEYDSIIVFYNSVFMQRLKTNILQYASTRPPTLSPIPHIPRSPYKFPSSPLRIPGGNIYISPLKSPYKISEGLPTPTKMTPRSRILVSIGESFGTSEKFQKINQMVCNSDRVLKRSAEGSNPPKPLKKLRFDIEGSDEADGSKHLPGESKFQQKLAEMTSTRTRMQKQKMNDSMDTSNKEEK

Variants of: B1
Settings: with ep300_human EP300, Q09472
Sequence of ep300_human EP300, Q09472 (Q09472 whole entry): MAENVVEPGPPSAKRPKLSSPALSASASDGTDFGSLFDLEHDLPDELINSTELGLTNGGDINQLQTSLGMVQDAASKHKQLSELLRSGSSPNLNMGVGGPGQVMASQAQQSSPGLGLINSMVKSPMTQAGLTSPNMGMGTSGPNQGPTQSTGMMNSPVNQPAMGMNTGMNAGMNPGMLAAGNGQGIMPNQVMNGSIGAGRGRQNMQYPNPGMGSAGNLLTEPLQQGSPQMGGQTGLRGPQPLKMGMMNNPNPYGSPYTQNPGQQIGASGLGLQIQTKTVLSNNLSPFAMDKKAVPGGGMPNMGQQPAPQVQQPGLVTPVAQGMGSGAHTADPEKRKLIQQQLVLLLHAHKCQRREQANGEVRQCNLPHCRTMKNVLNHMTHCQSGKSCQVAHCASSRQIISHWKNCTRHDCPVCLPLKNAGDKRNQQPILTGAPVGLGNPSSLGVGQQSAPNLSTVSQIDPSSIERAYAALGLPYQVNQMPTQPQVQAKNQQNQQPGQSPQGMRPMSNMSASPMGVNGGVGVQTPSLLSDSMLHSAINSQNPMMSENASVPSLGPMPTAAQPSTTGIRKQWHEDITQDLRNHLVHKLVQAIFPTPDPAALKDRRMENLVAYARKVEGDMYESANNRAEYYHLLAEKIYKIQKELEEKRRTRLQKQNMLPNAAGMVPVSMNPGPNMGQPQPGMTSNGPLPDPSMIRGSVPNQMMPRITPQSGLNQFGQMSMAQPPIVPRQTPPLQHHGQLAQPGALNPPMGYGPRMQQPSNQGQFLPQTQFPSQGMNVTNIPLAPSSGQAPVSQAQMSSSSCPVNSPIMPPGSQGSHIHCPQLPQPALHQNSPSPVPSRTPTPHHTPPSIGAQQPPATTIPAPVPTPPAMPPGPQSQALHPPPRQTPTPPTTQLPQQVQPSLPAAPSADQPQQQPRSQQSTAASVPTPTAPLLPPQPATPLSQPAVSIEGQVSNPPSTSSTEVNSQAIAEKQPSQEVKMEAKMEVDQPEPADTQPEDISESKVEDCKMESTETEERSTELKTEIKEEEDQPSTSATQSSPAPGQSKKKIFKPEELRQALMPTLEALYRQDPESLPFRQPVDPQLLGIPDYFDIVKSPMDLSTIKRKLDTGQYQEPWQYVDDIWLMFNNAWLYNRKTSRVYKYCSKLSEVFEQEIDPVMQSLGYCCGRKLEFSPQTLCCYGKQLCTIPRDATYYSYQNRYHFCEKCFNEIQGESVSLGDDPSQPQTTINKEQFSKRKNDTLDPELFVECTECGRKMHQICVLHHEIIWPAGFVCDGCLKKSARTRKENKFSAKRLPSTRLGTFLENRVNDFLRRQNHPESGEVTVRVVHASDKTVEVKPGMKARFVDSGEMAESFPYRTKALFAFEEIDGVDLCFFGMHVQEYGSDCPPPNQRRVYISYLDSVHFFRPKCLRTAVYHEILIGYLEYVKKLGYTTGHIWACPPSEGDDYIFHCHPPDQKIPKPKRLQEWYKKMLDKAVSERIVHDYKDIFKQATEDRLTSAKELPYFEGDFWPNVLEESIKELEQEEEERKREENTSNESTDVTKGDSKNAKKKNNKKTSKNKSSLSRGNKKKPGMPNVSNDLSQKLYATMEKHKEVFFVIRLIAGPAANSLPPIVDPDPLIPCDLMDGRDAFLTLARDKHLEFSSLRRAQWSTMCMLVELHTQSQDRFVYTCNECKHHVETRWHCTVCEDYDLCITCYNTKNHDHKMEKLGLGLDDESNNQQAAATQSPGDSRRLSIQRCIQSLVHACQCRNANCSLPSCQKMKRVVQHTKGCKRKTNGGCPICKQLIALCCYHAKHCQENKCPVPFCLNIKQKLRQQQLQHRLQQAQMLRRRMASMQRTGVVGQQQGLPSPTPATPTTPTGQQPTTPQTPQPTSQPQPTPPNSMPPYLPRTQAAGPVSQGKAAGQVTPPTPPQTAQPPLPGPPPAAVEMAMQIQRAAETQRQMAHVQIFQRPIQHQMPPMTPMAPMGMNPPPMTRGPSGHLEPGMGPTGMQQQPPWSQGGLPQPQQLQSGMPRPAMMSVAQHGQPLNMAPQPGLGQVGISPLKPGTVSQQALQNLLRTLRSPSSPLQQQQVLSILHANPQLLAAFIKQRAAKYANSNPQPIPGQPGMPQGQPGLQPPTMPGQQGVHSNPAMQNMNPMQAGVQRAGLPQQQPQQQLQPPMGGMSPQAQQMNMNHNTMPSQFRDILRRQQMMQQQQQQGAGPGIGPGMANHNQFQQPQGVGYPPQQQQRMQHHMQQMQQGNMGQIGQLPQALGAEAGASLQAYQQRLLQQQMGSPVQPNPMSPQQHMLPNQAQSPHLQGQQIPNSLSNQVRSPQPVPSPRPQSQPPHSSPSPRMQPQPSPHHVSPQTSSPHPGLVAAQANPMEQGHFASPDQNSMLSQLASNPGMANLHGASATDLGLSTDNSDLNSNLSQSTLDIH

Variant | effect of a mutation on the interaction
R2G | disrupting interaction

Variants of: B1
Settings: with stat1_human STAT1, P42224
Sequence of stat1_human STAT1, P42224 (P42224 whole entry): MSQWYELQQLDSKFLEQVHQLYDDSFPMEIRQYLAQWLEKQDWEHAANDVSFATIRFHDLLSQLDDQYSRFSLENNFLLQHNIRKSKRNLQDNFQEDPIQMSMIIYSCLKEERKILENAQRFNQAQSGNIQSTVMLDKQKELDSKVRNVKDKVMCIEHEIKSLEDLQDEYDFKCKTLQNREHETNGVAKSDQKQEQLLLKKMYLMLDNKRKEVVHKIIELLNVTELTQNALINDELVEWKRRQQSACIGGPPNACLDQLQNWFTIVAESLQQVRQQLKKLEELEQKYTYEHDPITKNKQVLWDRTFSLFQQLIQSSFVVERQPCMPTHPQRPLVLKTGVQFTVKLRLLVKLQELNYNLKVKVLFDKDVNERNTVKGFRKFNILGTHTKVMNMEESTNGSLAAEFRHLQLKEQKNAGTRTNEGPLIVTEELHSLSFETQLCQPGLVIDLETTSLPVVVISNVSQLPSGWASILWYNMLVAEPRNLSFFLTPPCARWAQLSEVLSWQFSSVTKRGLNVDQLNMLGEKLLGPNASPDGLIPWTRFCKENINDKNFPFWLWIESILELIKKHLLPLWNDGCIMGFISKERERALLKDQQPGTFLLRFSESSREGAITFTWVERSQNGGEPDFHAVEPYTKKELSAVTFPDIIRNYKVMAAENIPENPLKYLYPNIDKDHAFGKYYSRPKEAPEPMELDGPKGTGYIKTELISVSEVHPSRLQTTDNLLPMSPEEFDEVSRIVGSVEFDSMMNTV

Variant | effect of a mutation on the interaction
R2G | decreasing interaction

Variants of: B2
Settings: with rb_human RB1, P06400

Variant | effect of a mutation on the interaction
R2G | decreasing interaction
